Target: the molecule itself
Test: SAXS

B1: human P5 (PDIA6), full-length (enzyme, UniProt Q15084 20-440, looked up)
chain: LYSSSDDVIELTPSNFNREVIQSDSLWLVEFYAPWCGHCQRLTPEWKKAATALKDVVKVGAVDADKHHSLGGQYGVQGFPTIKIFGSNKNRPEDYQGGRTGEAIVDAALSALRQLVKDRLGGRSGGYSSGKQGRSDSSSKKDVIELTDDSFDKNVLDSEDVWMVEFYAPWCGHCKNLEPEWAAAASEVKEQTKGKVKLAAVDATVNQVLASRYGIRGFPTIKIFQKGESPVDYDGGRTRSDIVSRALDLFSDNAPPPELLEIINEDIAKRTCEEHQLCVVAVLPHILDTGAAGRNSYLEVLLKLADKYKKKMWGWLWTEAGAQSELETALGIGGFGYPAMAAINARKMKFALLKGSFSEQGINEFLRELSFGRGSTAPVGGGAFPTIVEREPWDGRDGELPVEDDIDLSDVELDDLGKDEL
- stoichiometry N: 2
